Kd and IC50 data for one molecule are collected here from patent US20250109209A1.

In test [1] the target is Cyno TL1A (cyno) (UniProt G7PRK8). Nature of the test: SPR, representative sensorgram with Cyno TL1A.
In test [2] the target is human TL1A (human) (UniProt O95150). Nature of the test: selectivity ELISA: antibody pre-incubated with TL1A, inhibition of TL1A binding to plate-coated DR3.
For test [3], the target named is mouse TL1A (mouse) (UniProt Q5UBV8). Description: SPR, mAb format, average.
Test [4] concerns the target Cyno TL1A (cyno) (UniProt G7PRK8). Description: SPR, mAb format, average.
Test [5] concerns the target human TL1A (human) (UniProt O95150). Nature of the test: SPR, mAb format, average.
Test [6] has the same target. Nature of the test: SPR, representative sensorgram with Human TL1A.
Test [7] shares this target. Nature of the test: selectivity ELISA: antibody pre-incubated with TL1A, inhibition of TL1A binding to plate-coated DcR3.

Sequence of human TL1A (human) (O95150 72-251 limits assumed): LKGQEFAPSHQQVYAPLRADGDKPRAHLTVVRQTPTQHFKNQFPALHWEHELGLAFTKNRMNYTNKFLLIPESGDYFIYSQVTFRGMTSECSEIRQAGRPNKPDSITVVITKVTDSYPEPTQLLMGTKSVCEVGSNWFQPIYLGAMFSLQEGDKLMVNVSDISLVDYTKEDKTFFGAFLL
Sequence of Cyno TL1A (cyno) (G7PRK8 entry or part of it): as the sequence (O95150 72-251 limits assumed) above, with F39L, I78V counted along it
Sequence of mouse TL1A (mouse) (Q5UBV8 76-252 V180M/M218T limits assumed): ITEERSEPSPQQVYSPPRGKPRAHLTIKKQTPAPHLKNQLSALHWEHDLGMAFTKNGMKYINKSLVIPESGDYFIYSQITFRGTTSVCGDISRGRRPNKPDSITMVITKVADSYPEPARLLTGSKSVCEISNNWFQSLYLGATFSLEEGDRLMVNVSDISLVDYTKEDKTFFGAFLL

B1: Heron2B (antibody, INN chains, looked up, V domains shown)
VH: QVQLVQSGAEVKKPGASVKVSCKASGFDIQDTYMHWVKQRPGQGLEWMGRIDPASGHTKYDPKFQVRVTITRDTSTSTVYLELSSLRSEDTAVYYCARSGGLPDVWGQGTTVTVSS
VL: EIVLTQSPGTLSLSPGERATLSCRASSSVSYMYWYQQKPGQAPRPLIYATSNLASGIPDRFSGSGSGTDFTLTISRLEPEDFAVYYCQQWEGNPRTFGGGTKLEIK
For B1, the Kd in test [1] was 0.114 nM; in test [3], 81900 nM; in test [4], 0.09 nM; in test [5], 0.365 nM; in test [6] it was 0.339 nM. Moreover, the IC50 amounted to 6.3 µg/mL in test [2] and 3.6 µg/mL in test [7].
